Measured values taken from publication PMC5908291, “The JmjN domain as a dimerization interface and a targeted inhibitor of KDM4 demethylase activity” (Oncotarget, 2018).

B1: KDM4A with a C-terminal YN or YC tag (enzyme, human, UniProt O75164 1-1064, looked up)
chain: MASESETLNPSARIMTFYPTMEEFRNFSRYIAYIESQGAHRAGLAKVVPPKEWKPRASYDDIDDLVIPAPIQQLVTGQSGLFTQYNIQKKAMTVREFRKIANSDKYCTPRYSEFEELERKYWKNLTFNPPIYGADVNGTLYEKHVDEWNIGRLRTILDLVEKESGITIEGVNTPYLYFGMWKTSFAWHTEDMDLYSINYLHFGEPKSWYSVPPEHGKRLERLAKGFFPGSAQSCEAFLRHKMTLISPLMLKKYGIPFDKVTQEAGEFMITFPYGYHAGFNHGFNCAESTNFATRRWIEYGKQAVLCSCRKDMVKISMDVFVRKFQPERYKLWKAGKDNTVIDHTLPTPEAAEFLKESELPPRAGNEEECPEEDMEGVEDGEEGDLKTSLAKHRIGTKRHRVCLEIPQEVSQSELFPKEDLSSEQYEMTECPAALAPVRPTHSSVRQVEDGLTFPDYSDSTEVKFEELKNVKLEEEDEEEEQAAAALDLSVNPASVGGRLVFSGSKKKSSSSLGSGSSRDSISSDSETSEPLSCRAQGQTGVLTVHSYAKGDGRVTVGEPCTRKKGSAARSFSERELAEVADEYMFSLEENKKSKGRRQPLSKLPRHHPLVLQECVSDDETSEQLTPEEEAEETEAWAKPLSQLWQNRPPNFEAEKEFNETMAQQAPHCAVCMIFQTYHQVEFGGFNQNCGNASDLAPQKQRTKPLIPEMCFTSTGCSTDINLSTPYLEEDGTSILVSCKKCSVRVHASCYGVPPAKASEDWMCSRCSANALEEDCCLCSLRGGALQRANDDRWVHVSCAVAILEARFVNIAERSPVDVSKIPLPRFKLKCIFCKKRRKRTAGCCVQCSHGRCPTAFHVSCAQAAGVMMQPDDWPFVVFITCFRHKIPNLERAKGALQSITAGQKVISKHKNGRFYQCEVVRLTTETFYEVNFDDGSFSDNLYPEDIVSQDCLQFGPPAEGEVVQVRWTDGQVYGAKFVASHPIQMYQVEFEDGSQLVVKRDDVYTLDEELPKRVKSRLSVASDMRFNEIFTEKEVKQEKKRQRVINSRYREDYIEPALYRAIME
notes: Lysine demethylase KDM4A (JmjD2A), human, ORF amplified from pCMV-HA-JmjD2A; BiFC pair: one molecule stands for the YN and the YC conjugate; also called KDM4A-YN; KDM4A-YC; source: HEK293, transiently transfected, in cells; not shown: YN (Venus YFP residues 1-172) on one copy or YC (Venus YFP residues 155-238) on the other, C-terminal, kept
B2: KDM4C with a C-terminal YN or YC tag (enzyme, human, UniProt Q9H3R0 1-1056, looked up)
chain: MEVAEVESPLNPSCKIMTFRPSMEEFREFNKYLAYMESKGAHRAGLAKVIPPKEWKPRQCYDDIDNLLIPAPIQQMVTGQSGLFTQYNIQKKAMTVKEFRQLANSGKYCTPRYLDYEDLERKYWKNLTFVAPIYGADINGSIYDEGVDEWNIARLNTVLDVVEEECGISIEGVNTPYLYFGMWKTTFAWHTEDMDLYSINYLHFGEPKSWYAIPPEHGKRLERLAQGFFPSSSQGCDAFLRHKMTLISPSVLKKYGIPFDKITQEAGEFMITFPYGYHAGFNHGFNCAESTNFATVRWIDYGKVAKLCTCRKDMVKISMDIFVRKFQPDRYQLWKQGKDIYTIDHTKPTPASTPEVKAWLQRRRKVRKASRSFQCARSTSKRPKADEEEEVSDEVDGAEVPNPDSVTDDLKVSEKSEAAVKLRNTEASSEEESSASRMQVEQNLSDHIKLSGNSCLSTSVTEDIKTEDDKAYAYRSVPSISSEADDSIPLSSGYEKPEKSDPSELSWPKSPESCSSVAESNGVLTEGEESDVESHGNGLEPGEIPAVPSGERNSFKVPSIAEGENKTSKSWRHPLSRPPARSPMTLVKQQAPSDEELPEVLSIEEEVEETESWAKPLIHLWQTKSPNFAAEQEYNATVARMKPHCAICTLLMPYHKPDSSNEENDARWETKLDEVVTSEGKTKPLIPEMCFIYSEENIEYSPPNAFLEEDGTSLLISCAKCCVRVHASCYGIPSHEICDGWLCARCKRNAWTAECCLCNLRGGALKQTKNNKWAHVMCAVAVPEVRFTNVPERTQIDVGRIPLQRLKLKCIFCRHRVKRVSGACIQCSYGRCPASFHVTCAHAAGVLMEPDDWPYVVNITCFRHKVNPNVKSKACEKVISVGQTVITKHRNTRYYSCRVMAVTSQTFYEVMFDDGSFSRDTFPEDIVSRDCLKLGPPAEGEVVQVKWPDGKLYGAKYFGSNIAHMYQVEFEDGSQIAMKREDIYTLDEELPKRVKARFSTASDMRFEDTFYGADIIQGERKRQRVLSSRFKNEYVADPVYRTFLKSSFQKKCQKRQ
notes: Lysine demethylase KDM4C (GASC1), human, ORF amplified from pCMV-HA-GASC1; 1056 aa as printed; BiFC pair: one molecule stands for the YN and the YC conjugate; also called KDM4C-YN; KDM4C-YC; source: HEK293, transiently transfected, in cells; not shown: YN (Venus YFP residues 1-172) on one copy or YC (Venus YFP residues 155-238) on the other, C-terminal, kept

Experiments:
Assay in all cases: split reporter (BiFC, NanoBiT); BiFC (Venus YN + YC), IF microscopy of fixed HEK293 cells with quantitative image analysis (Imaris): mean reconstituted YFP fluorescence in each anti-YFP positive cell, >100 cells for each transfection
[1] = molecular target: KDM4B with a C-terminal YN or YC tag (human) (UniProt O94953)
Sequence of KDM4B with a C-terminal YN or YC tag (human) (O94953 whole entry): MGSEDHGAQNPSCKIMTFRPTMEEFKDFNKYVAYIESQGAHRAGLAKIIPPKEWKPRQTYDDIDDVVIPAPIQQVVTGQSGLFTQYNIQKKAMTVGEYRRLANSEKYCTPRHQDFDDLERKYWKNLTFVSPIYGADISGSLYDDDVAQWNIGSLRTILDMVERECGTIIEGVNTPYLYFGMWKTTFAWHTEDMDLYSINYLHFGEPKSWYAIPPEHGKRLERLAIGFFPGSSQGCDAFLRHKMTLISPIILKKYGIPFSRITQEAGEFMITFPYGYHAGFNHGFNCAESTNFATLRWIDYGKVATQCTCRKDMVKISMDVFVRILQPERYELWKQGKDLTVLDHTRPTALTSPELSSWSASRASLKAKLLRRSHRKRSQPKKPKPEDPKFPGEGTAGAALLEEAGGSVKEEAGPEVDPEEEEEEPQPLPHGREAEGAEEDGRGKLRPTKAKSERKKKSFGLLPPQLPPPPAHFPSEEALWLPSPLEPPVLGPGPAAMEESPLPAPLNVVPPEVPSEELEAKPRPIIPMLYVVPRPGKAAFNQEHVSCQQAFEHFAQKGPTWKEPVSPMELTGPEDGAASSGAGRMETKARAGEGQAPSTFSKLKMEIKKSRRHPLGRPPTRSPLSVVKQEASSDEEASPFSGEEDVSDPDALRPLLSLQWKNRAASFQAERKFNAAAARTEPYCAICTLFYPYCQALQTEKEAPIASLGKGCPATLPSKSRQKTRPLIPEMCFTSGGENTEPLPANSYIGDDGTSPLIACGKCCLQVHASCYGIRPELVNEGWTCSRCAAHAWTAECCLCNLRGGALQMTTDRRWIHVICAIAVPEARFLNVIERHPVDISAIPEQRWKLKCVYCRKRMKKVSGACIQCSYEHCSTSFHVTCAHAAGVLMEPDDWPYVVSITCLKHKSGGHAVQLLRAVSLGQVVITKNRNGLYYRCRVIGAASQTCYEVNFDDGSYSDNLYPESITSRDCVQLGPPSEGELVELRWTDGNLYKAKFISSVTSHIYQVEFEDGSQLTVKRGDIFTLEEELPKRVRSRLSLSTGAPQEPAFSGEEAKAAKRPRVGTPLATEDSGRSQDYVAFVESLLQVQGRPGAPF

[2] = molecular target: B2
[3] = molecular target: the molecule itself

| YFP fluorescence (BiFC), Average (arbitrary units) [1] | YFP fluorescence (BiFC), Max (arbitrary units) [1] | YFP fluorescence (BiFC), Median (arbitrary units) [1] | YFP fluorescence (BiFC), Min (arbitrary units) [1] | YFP fluorescence (BiFC), Average (arbitrary units) [2] | YFP fluorescence (BiFC), Max (arbitrary units) [2] | YFP fluorescence (BiFC), Median (arbitrary units) [2] | YFP fluorescence (BiFC), Min (arbitrary units) [2] | YFP fluorescence (BiFC), Average ([2]; partners not purified) [arbitrary units] | YFP fluorescence (BiFC), Max ([2]; partners not purified) [arbitrary units] | YFP fluorescence (BiFC), Median ([2]; partners not purified) [arbitrary units] | YFP fluorescence (BiFC), Min ([2]; partners not purified) [arbitrary units] | Molecule | YFP fluorescence (BiFC), Average [3] [arbitrary units] | YFP fluorescence (BiFC), Max [3] [arbitrary units] | YFP fluorescence (BiFC), Median [3] [arbitrary units] | YFP fluorescence (BiFC), Min [3] [arbitrary units] |
| --- | --- | --- | --- | --- | --- | --- | --- | --- | --- | --- | --- | --- | --- | --- | --- | --- |
| 129 | 320 | 120 | 48 | 170 | 356 | 146 | 50 |  |  |  |  | KDM4B with a C-terminal YN or YC tag (from UniProt O94953 1-1096) (enzyme) |  |  |  |  |
| 110 | 309 | 104 | 19 |  |  |  |  | 845 | 3080 | 717 | 320 | B1 | 943 | 3140 | 726 | 259 |
|  |  |  |  |  |  |  |  |  |  |  |  | B2 | 741 | 2890 | 628 | 204 |
